In US20250154199A1:

Biological target: Slack KNa channel, wildtype (Slack-B subunit), recombinantly expressed in CHO cells
Test: cell-based or functional assay

membrane currents of Slack-B on co-expression with Magi-1: 2 fold
Substance: Magi-1 (Membrane-Associated Guanylate Kinase 1), recombinantly expressed in CHO cells
